Holding throughout (experiment): holdup assay
Holding throughout (set-up): key: below the threshold = too weak to quantify, mostly under pKd 3.1 to 4
Common to all, as to details: plain residues with an end cap or a label only (N-terminal biotin on a linker: ado-ado)

Test [1] addresses PARD3_3, Q8TEW0.
The target of test [2] is GRIP2_7, Q9C0E4.
The target of test [3] is T1, SNTA1, Q13424.
T1 sequence (Q13424 82-180, limits assumed, looked up): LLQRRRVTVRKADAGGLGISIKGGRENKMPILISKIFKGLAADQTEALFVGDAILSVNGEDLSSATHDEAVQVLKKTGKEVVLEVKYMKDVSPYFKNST

For test [4], the target named is T2, DFNB31_1, Q9P202.
T2 sequence (Q9P202 135-233, limits assumed, looked up): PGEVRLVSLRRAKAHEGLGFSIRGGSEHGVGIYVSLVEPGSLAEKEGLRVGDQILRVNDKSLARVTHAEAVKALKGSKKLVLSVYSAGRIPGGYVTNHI

In test [5] the target is T3, APBA2_2, Q99767.
T3 sequence (Q99767 654-744, limits assumed, looked up): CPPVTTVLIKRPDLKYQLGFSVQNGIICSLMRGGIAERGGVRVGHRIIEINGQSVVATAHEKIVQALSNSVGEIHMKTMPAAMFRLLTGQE

Test [6] has as its target T4, PDZD7_3, Q9H5P4.
T4 sequence (Q9H5P4 857-944, limits assumed, looked up): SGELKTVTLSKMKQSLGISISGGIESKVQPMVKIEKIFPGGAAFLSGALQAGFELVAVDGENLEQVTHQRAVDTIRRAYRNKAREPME

The target of test [7] is T5, PARD3B_1, Q8TEW8.
T5 sequence (Q8TEW8 196-299, limits assumed, looked up): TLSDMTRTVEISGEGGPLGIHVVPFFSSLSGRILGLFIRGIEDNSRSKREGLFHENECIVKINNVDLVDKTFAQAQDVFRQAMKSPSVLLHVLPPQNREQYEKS

The target in test [8] is GRIP2_3, Q9C0E4.
Sequence of GRIP2_3, Q9C0E4 (Q9C0E4 238-339): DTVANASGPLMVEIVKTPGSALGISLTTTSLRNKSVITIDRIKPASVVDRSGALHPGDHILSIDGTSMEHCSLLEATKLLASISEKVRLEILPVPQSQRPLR
Test [9] concerns the target SCRIB_1, Q14160.
The target in test [10] is T6, DFNB31_3, Q9P202.
T6 sequence (Q9P202 811-907, limits assumed, looked up): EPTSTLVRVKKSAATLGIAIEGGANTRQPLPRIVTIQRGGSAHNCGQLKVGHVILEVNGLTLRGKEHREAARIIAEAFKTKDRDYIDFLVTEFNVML

Test [11] concerns the target TJP1_2, Q07157.
In test [12] the target is NHERF4_2, Q86UT5.
Sequence of NHERF4_2, Q86UT5 (Q86UT5 220-308): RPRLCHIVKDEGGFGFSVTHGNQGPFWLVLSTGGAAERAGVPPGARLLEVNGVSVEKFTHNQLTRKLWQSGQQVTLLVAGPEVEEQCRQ
In test [13] the target is MAGI1_2, Q96QZ7.
Sequence of MAGI1_2, Q96QZ7 (Q96QZ7 456-580): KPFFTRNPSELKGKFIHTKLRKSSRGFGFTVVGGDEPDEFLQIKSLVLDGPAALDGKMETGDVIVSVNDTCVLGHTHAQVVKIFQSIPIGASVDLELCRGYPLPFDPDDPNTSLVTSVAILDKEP
Test [14] has as its target T7, ARHGAP21, Q5T5U3.
T7 sequence (Q5T5U3 45-169, limits assumed, looked up): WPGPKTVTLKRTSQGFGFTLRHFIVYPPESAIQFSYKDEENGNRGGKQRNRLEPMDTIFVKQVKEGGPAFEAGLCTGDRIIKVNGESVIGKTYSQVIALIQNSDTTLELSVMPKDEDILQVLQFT

The target of test [15] is T8, HTRA3, P83110.
T8 sequence (P83110 354-453, limits assumed, looked up): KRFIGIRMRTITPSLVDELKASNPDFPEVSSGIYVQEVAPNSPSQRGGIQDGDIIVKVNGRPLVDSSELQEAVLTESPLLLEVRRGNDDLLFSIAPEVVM

The target in test [16] is T9, CARD11, Q9BXL7.
T9 sequence (Q9BXL7 662-765, limits assumed, looked up): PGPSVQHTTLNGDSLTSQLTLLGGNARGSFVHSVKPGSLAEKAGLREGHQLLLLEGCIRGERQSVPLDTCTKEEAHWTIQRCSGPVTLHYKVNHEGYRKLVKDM

For test [17], the target named is TJP2_1, Q9UDY2.
Sequence of TJP2_1, Q9UDY2 (Q9UDY2 24-128): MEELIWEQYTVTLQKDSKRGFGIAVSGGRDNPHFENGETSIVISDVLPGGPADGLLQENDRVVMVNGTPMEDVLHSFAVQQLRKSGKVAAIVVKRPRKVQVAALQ
For test [18], the target named is GORASP1, Q9BQQ3.
Sequence of GORASP1, Q9BQQ3 (Q9BQQ3 1-208): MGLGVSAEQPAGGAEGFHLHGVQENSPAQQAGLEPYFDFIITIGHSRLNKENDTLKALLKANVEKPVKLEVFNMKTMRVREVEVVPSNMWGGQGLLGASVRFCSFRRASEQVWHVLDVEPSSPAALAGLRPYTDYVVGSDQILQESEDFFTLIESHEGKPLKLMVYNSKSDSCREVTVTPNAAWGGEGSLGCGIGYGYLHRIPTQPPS
Test [19] has as its target T10, SNTG1, Q9NSN8.
T10 sequence (Q9NSN8 52-150, limits assumed, looked up): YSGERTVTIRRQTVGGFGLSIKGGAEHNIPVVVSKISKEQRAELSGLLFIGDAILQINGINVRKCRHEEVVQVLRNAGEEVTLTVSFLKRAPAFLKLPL

Test [20] addresses T11, FRMPD1, Q5SYB0.
T11 sequence (Q5SYB0 52-145, limits assumed, looked up): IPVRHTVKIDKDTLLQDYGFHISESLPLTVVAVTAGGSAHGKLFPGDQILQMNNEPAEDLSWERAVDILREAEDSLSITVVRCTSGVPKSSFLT

In test [21] the target is LIMK2, P53671.
Sequence of LIMK2, P53671 (P53671 143-248): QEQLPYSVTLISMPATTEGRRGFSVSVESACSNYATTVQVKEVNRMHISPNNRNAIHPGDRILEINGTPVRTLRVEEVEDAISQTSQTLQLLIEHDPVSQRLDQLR
The target of test [22] is T12, SIPA1L2, Q9P2F8.
T12 sequence (Q9P2F8 945-1036, limits assumed, looked up): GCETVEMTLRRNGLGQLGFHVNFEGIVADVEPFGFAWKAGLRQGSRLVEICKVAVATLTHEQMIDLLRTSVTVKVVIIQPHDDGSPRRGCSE

Test [23] concerns the target T13, TJP3_3, O95049.
T13 sequence (O95049 375-456, limits assumed, looked up): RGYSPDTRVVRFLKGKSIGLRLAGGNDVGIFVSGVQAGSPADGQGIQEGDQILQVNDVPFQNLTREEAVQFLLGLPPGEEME

Test [24] addresses SCRIB_3, Q14160.

Sequence of SCRIB_3, Q14160 (Q14160 999-1103): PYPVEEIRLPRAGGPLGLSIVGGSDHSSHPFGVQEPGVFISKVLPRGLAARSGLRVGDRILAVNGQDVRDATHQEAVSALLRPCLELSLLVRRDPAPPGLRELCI
Sequence of GRIP2_7, Q9C0E4 (Q9C0E4 934-1023): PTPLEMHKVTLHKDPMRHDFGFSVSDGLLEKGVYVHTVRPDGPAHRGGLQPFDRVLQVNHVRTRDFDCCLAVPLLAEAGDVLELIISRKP
Sequence of SCRIB_1, Q14160 (Q14160 718-814): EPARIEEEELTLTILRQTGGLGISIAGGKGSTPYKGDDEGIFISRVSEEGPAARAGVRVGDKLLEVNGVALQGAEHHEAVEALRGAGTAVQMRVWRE
Sequence of TJP1_2, Q07157 (Q07157 181-274): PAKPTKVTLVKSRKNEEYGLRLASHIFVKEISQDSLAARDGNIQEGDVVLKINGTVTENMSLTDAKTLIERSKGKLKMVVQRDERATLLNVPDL
Sequence of PARD3_3, Q8TEW0 (Q8TEW0 582-685): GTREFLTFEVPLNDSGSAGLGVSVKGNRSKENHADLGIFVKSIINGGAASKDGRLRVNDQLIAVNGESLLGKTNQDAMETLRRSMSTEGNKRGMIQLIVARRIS

In the case of KLQNPNQSVV [TYRP1, P17643], the pKd (as a rule, the negative decadic logarithm of the Kd, by convention in mol/L) in test [1] is “below the threshold”; in [2], “below the threshold”; in [3], 3.99; in [4] it was 3.61; in test [5], “below the threshold”; in [6] it was 4.22. Further, the pKd entry in [7] was “below the threshold”; in [8], “below the threshold”; in test [9] it was 3.52; in test [10], “below the threshold”; in test [11], “below the threshold”; in test [12] it was “below the threshold”. The pKd result in test [13] was “below the threshold”; in [14], 3.98; in test [15], “below the threshold”; in test [16] it was “below the threshold”; in test [17], “below the threshold”; in test [18] it was 3.53. Moreover, the pKd is 3.47 in test [19]; “below the threshold” in test [20]; “below the threshold” in test [21]; “below the threshold” in test [22]; “below the threshold” in test [23]; “below the threshold” in [24].

As for VCMGDHWFDV [PRKN, O60260], the pKd is 4.25 in test [1]; 4.36 in [2]; “below the threshold” in [3]; “below the threshold” in [4]; “below the threshold” in [5]; “below the threshold” in [6]. Moreover, the negative logarithm of the Kd (pKd) was 4.78 in [7]; “below the threshold” in test [8]; 3.55 in test [9]; 3.54 in test [10]; “below the threshold” in [11]; “below the threshold” in [12]. Further, the pKd entry is “below the threshold” in test [13]; 4.08 in test [14]; 4.49 in test [15]; “below the threshold” in test [16]; “below the threshold” in test [17]; 4.06 in test [18]. In addition, the negative-log Kd (pKd) is 3.81 in test [19]; “below the threshold” in test [20]; “below the threshold” in test [21]; “below the threshold” in test [22]; 4.57 in [23]; 3.98 in [24].

On to QRYPGNQTTC [CCL24, O00175], for which the negative-log Kd (pKd) entry in test [1], in test [2], in [3], in [4], in [5] and in test [6] was “below the threshold” in each case. For the same molecule, the pKd result is “below the threshold” in test [7]; “below the threshold” in test [8]; 3.92 in [9]; “below the threshold” in [10]; “below the threshold” in test [11]; “below the threshold” in test [12]. Also, the pKd result in test [13] is “below the threshold”; in [14] it was “below the threshold”; in [15] it was 3.74; in [16], “below the threshold”; in test [17], “below the threshold”; in test [18], “below the threshold”. Also, the pKd entry in test [19] is “below the threshold”; in [20] it was “below the threshold”; in test [21] it was “below the threshold”; in test [22] it was “below the threshold”; in test [23], “below the threshold”; in test [24] it was 3.64.

Consider HYPASPDSWV [CTNND2, Q9UQB3], for which the pKd in test [1] is 3.92; in test [2] it was 3.95; in test [3], 4.17; in test [4] it was 4.34; in [5], “below the threshold”; in test [6], 4.3. The negative logarithm of the Kd (pKd) is 3.52 in test [7]; “below the threshold” in test [8]; 4.06 in test [9]; “below the threshold” in [10]; 4.19 in test [11]; 3.55 in test [12]. Besides, the negative-log Kd (pKd) result was “below the threshold” in test [13]; “below the threshold” in [14]; 5.66 in test [15]; “below the threshold” in test [16]; 4.37 in test [17]; 3.93 in test [18]. Also, the negative logarithm of the Kd (pKd) was 4.64 in test [19]; “below the threshold” in test [20]; “below the threshold” in [21]; “below the threshold” in test [22]; 4.91 in [23]; 4.4 in test [24].
